In patent US20180155451A1 (published 2018):

T1: FcγRIIa R (human, UniProt P12318 34-217)
T1 construct: extracellular domain; also called FcgRIIa R type; 2aR
T1 sequence (looked up): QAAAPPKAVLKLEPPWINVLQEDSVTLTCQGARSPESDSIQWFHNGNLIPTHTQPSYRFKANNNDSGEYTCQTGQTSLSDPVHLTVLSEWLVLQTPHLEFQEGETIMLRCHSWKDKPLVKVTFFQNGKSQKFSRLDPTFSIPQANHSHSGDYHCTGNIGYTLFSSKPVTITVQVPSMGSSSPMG

T2: FcγRIIb (human, UniProt P31994 43-217)
T2 construct: extracellular domain; also called FcgRIIb; 2b
T2 sequence (looked up): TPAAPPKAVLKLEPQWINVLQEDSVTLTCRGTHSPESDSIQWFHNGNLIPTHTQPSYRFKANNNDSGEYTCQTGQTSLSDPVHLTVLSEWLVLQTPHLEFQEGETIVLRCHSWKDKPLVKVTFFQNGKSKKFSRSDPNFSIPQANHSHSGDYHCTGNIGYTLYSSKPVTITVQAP

B1: GpH7-A5/GpH7-B3 variant E269_16H/GpL16-k0 (antibody, human IgG1, kappa)
heavy 1: not shown
heavy 2: not shown
light: DIVMTQSPLSLPVTPGEPASISCQASESLVHSNRNTYLHWYLQKPGQSPQLLIYKVSNRFSGVPDRFSGSGSGTDFTLKISRVEAEDVGVYYCSQNTHVPPTFGQGTKVEIERTVAAPSVFIFPPSDEQLKSGTASVVCLLNNFYPREAKVQWKVDNALQSGNSQESVTEQDSKDSTYSLSSTLTLSKADYEKHKVYACEVTHQGLSSPVTKSFNRGEC
notes: heterodimerized antibody, mutation in the GpH7-B3 chain only; also called He Ab
B2: GpH7-A5/GpH7-B3 variant E269_18N/GpL16-k0 (antibody, human IgG1, kappa)
heavy 1: not shown
heavy 2: not shown
light: B1 light
notes: as for B1
B3: GpH7-A5/GpH7-B3 variant E269_19Q/GpL16-k0 (antibody, human IgG1, kappa)
heavy 1: not shown
heavy 2: not shown
light: B1 light
notes: as for B1
B4: GpH7-A5/GpH7-B3 variant E269_20W/GpL16-k0 (antibody, human IgG1, kappa)
heavy 1: not shown
heavy 2: not shown
light: B1 light
notes: as for B1
B5: GpH7-A5/GpH7-B3 variant H268_06M/GpL16-k0 (antibody, human IgG1, kappa)
heavy 1: not shown
heavy 2: not shown
light: B1 light
notes: as for B1
B6: GpH7-A5/GpH7-B3 variant H268_08L/GpL16-k0 (antibody, human IgG1, kappa)
heavy 1: not shown
heavy 2: not shown
light: B1 light
notes: as for B1
B7: GpH7-A5/GpH7-B3 variant H268_11K/GpL16-k0 (antibody, human IgG1, kappa)
heavy 1: not shown
heavy 2: not shown
light: B1 light
notes: as for B1
B8: GpH7-A5/GpH7-B3 variant P271_04F/GpL16-k0 (antibody, human IgG1, kappa)
heavy 1: not shown
heavy 2: not shown
light: B1 light
notes: as for B1
B9: GpH7-A5/GpH7-B3 variant P271_15Y/GpL16-k0 (antibody, human IgG1, kappa)
heavy 1: not shown
heavy 2: not shown
light: B1 light
notes: as for B1
B10: GpH7-A5/GpH7-B3 variant P271_20W/GpL16-k0 (antibody, human IgG1, kappa)
heavy 1: not shown
heavy 2: not shown
light: B1 light
notes: as for B1
B11: GpH7-A5/GpH7-B3 variant Q295_01G/GpL16-k0 (antibody, human IgG1, kappa)
heavy 1: not shown
heavy 2: not shown
light: B1 light
notes: as for B1
B12: GpH7-A5/GpH7-B3 variant Q295_03V/GpL16-k0 (antibody, human IgG1, kappa)
heavy 1: not shown
heavy 2: not shown
light: B1 light
notes: as for B1
B13: GpH7-A5/GpH7-B3 variant Q295_04F/GpL16-k0 (antibody, human IgG1, kappa)
heavy 1: not shown
heavy 2: not shown
light: B1 light
notes: as for B1
B14: GpH7-A5/GpH7-B3 variant Q295_05P/GpL16-k0 (antibody, human IgG1, kappa)
heavy 1: not shown
heavy 2: not shown
light: B1 light
notes: as for B1
B15: GpH7-A5/GpH7-B3 variant Q295_11K/GpL16-k0 (antibody, human IgG1, kappa)
heavy 1: not shown
heavy 2: not shown
light: B1 light
notes: as for B1
B16: GpH7-A5/GpH7-B3 variant Q295_12R/GpL16-k0 (antibody, human IgG1, kappa)
heavy 1: not shown
heavy 2: not shown
light: B1 light
notes: as for B1
B17: GpH7-A5/GpH7-B3 variant Q295_13S/GpL16-k0 (antibody, human IgG1, kappa)
heavy 1: not shown
heavy 2: not shown
light: B1 light
notes: as for B1

biological target: T1, FcγRIIa R; test: SPR; He/Con_2aR divided by He/Con_2b (FcγRIIb as reference)
Procedure: (§1) The heterodimerized antibodies He Abs in which one of the H chains was introduced with an alteration were assayed for their binding activities to each activating FcγR and inhibitory FcγR according to the method described in Example 4. […] The activating FcγRs in FIGS. 26, 27, 28, and 29 are FcγRIa, FcγRIIa (R), FcγRIIa (H), and FcγRIIIa, respectively.
(§2) Analysis of interaction between objective antibody and the FcγR was carried out using Biacore T100 (GE Healthcare). HBS-EP+ (GE Healthcare) was used as the running buffer, and the measurement temperature was set to 25° C. Chips produced by immobilizing the antigen peptide by the amine coupling method to a Series S Sencor Chip CM5 (GE Healthcare), or alternatively, chips produced by allowing preliminarily biotinylated antigen peptides to interact with and immobilize onto a Series S Sensor Chip SA (certified) (GE Healthcare) were used. Antibodies of interest were captured onto an antigen peptide-immobilized chip, and allowed to interact to each FcγR diluted with running buffer. To regenerate and repeatedly use the chip, the antibodies captured on the chip were washed off by reacting 10 mM glycine-HCl, pH 1.5.

| IIaR/IIb (He_2aR/2b) | Binder |
| --- | --- |
| 1.32 ratio | B1 |
| 1.32 ratio | B2 |
| 1.31 ratio | B3 |
| 1.3 ratio | B4 |
| 1.23 ratio | B5 |
| 1.25 ratio | B6 |
| 1.21 ratio | B7 |
| 1.28 ratio | B8 |
| 1.35 ratio | B9 |
| 1.33 ratio | B10 |
| 1.32 ratio | B11 |
| 1.2 ratio | B12 |
| 1.29 ratio | B13 |
| 1.3 ratio | B14 |
| 1.26 ratio | B15 |
| 1.27 ratio | B16 |
| 1.3 ratio | B17 |

biological target: T1, FcγRIIa R; test: SPR (Biacore), antibody captured, FcγR as analyte; relative binding
Procedure: as §1, §2

| He/Con_2aR (IIaR binding) | Binder |
| --- | --- |
| 50.7 % of GpH7-A5/GpH7-B3/GpL16-k0 (=100) | B1 |
| 59.2 % of GpH7-A5/GpH7-B3/GpL16-k0 (=100) | B2 |
| 57.8 % of GpH7-A5/GpH7-B3/GpL16-k0 (=100) | B3 |
| 55.5 % of GpH7-A5/GpH7-B3/GpL16-k0 (=100) | B4 |
| 81 % of GpH7-A5/GpH7-B3/GpL16-k0 (=100) | B5 |
| 85 % of GpH7-A5/GpH7-B3/GpL16-k0 (=100) | B6 |
| 100 % of GpH7-A5/GpH7-B3/GpL16-k0 (=100) | B7 |
| 75.9 % of GpH7-A5/GpH7-B3/GpL16-k0 (=100) | B8 |
| 70.7 % of GpH7-A5/GpH7-B3/GpL16-k0 (=100) | B9 |
| 77.3 % of GpH7-A5/GpH7-B3/GpL16-k0 (=100) | B10 |
| 60.9 % of GpH7-A5/GpH7-B3/GpL16-k0 (=100) | B11 |
| 91.2 % of GpH7-A5/GpH7-B3/GpL16-k0 (=100) | B12 |
| 83.6 % of GpH7-A5/GpH7-B3/GpL16-k0 (=100) | B13 |
| 87.4 % of GpH7-A5/GpH7-B3/GpL16-k0 (=100) | B14 |
| 88.9 % of GpH7-A5/GpH7-B3/GpL16-k0 (=100) | B15 |
| 83 % of GpH7-A5/GpH7-B3/GpL16-k0 (=100) | B16 |
| 73.7 % of GpH7-A5/GpH7-B3/GpL16-k0 (=100) | B17 |

biological target: T2, FcγRIIb; test: as above
Procedure: as §1, §2

| He/Con_2b (IIb binding) | Binder |
| --- | --- |
| 38.5 % of GpH7-A5/GpH7-B3/GpL16-k0 (=100) | B1 |
| 44.8 % of GpH7-A5/GpH7-B3/GpL16-k0 (=100) | B2 |
| 44.3 % of GpH7-A5/GpH7-B3/GpL16-k0 (=100) | B3 |
| 42.5 % of GpH7-A5/GpH7-B3/GpL16-k0 (=100) | B4 |
| 65.7 % of GpH7-A5/GpH7-B3/GpL16-k0 (=100) | B5 |
| 67.8 % of GpH7-A5/GpH7-B3/GpL16-k0 (=100) | B6 |
| 83 % of GpH7-A5/GpH7-B3/GpL16-k0 (=100) | B7 |
| 59.5 % of GpH7-A5/GpH7-B3/GpL16-k0 (=100) | B8 |
| 52.3 % of GpH7-A5/GpH7-B3/GpL16-k0 (=100) | B9 |
| 58.1 % of GpH7-A5/GpH7-B3/GpL16-k0 (=100) | B10 |
| 46 % of GpH7-A5/GpH7-B3/GpL16-k0 (=100) | B11 |
| 75.7 % of GpH7-A5/GpH7-B3/GpL16-k0 (=100) | B12 |
| 64.7 % of GpH7-A5/GpH7-B3/GpL16-k0 (=100) | B13 |
| 67.5 % of GpH7-A5/GpH7-B3/GpL16-k0 (=100) | B14 |
| 70.4 % of GpH7-A5/GpH7-B3/GpL16-k0 (=100) | B15 |
| 65.2 % of GpH7-A5/GpH7-B3/GpL16-k0 (=100) | B16 |
| 56.9 % of GpH7-A5/GpH7-B3/GpL16-k0 (=100) | B17 |
